B1: GpH7-B3 variant P238_04F/GpL16-k0 (antibody, human IgG1, kappa)
heavy: not shown
light: DIVMTQSPLSLPVTPGEPASISCQASESLVHSNRNTYLHWYLQKPGQSPQLLIYKVSNRFSGVPDRFSGSGSGTDFTLKISRVEAEDVGVYYCSQNTHVPPTFGQGTKVEIERTVAAPSVFIFPPSDEQLKSGTASVVCLLNNFYPREAKVQWKVDNALQSGNSQESVTEQDSKDSTYSLSSTLTLSKADYEKHKVYACEVTHQGLSSPVTKSFNRGEC
notes: also called Ho Ab P238_04F
B2: GpH7-A5/GpH7-B3 variant G237_02A/GpL16-k0 (antibody, human IgG1, kappa)
heavy 1: not shown
heavy 2: not shown
light: B1 light
notes: also called He Ab G237_02A
B3: GpH7-B3 variant T335_20W/GpL16-k0 (antibody, human IgG1, kappa)
heavy: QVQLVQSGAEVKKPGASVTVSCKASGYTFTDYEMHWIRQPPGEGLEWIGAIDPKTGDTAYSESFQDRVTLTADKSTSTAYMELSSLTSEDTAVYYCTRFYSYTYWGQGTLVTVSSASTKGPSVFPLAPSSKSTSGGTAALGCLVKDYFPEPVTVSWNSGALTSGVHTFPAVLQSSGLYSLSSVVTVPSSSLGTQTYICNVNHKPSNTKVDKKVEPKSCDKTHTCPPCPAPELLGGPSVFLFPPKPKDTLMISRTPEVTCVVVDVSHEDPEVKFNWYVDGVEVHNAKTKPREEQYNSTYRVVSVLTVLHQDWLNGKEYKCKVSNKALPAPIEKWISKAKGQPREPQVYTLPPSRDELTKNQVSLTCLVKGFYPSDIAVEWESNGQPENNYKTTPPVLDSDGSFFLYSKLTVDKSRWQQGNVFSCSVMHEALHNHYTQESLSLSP
light: B1 light
notes: also called Ho Ab T335_20W
B4: GpH7-B3 variant S267_06M/GpL16-k0 (antibody, human IgG1, kappa)
heavy: not shown
light: B1 light
notes: also called Ho Ab S267_06M
B5: GpH7-B3 variant T335_10E/GpL16-k0 (antibody, human IgG1, kappa)
heavy: not shown
light: B1 light
notes: also called Ho Ab T335_10E
B6: GpH7-B3 variant S239_06M/GpL16-k0 (antibody, human IgG1, kappa)
heavy: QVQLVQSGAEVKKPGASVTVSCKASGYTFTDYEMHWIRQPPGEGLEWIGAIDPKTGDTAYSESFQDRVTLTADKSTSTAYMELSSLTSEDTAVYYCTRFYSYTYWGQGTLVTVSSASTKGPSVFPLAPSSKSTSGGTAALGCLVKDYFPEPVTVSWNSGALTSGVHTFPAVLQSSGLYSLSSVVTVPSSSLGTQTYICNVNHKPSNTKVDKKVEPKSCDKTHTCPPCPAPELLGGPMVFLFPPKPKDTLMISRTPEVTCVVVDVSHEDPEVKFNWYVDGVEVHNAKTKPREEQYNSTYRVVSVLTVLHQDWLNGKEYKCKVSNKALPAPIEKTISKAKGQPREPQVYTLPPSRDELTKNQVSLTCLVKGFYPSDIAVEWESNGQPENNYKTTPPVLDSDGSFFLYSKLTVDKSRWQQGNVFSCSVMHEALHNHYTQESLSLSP
light: B1 light
notes: also called Ho Ab S239_06M
B7: GpH7-A5/GpH7-B3 variant G237_13S/GpL16-k0 (antibody, human IgG1, kappa)
heavy 1: not shown
heavy 2: not shown
light: B1 light
notes: also called He Ab G237_13S
B8: GpH7-B3 variant S298_06M/GpL16-k0 (antibody, human IgG1, kappa)
heavy: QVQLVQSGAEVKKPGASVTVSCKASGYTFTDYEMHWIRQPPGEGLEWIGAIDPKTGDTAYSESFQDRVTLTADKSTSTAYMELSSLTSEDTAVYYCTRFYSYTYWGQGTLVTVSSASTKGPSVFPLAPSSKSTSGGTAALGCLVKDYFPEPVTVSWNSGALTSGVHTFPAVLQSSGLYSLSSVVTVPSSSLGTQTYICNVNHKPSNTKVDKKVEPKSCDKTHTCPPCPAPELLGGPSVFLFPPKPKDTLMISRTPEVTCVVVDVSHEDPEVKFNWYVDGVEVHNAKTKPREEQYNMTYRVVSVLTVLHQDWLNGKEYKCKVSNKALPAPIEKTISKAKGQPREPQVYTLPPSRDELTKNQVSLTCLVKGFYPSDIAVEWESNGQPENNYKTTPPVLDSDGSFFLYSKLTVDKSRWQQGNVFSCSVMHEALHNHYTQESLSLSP
light: B1 light
notes: also called Ho Ab S298_06M
B9: GpH7-A5/GpH7-B3 variant G237_06M/GpL16-k0 (antibody, human IgG1, kappa)
heavy 1: not shown
heavy 2: not shown
light: B1 light
notes: also called He Ab G237_06M
B10: GpH7-A5/GpH7-B3 variant A327_07I/GpL16-k0 (antibody, human IgG1, kappa)
heavy 1: not shown
heavy 2: not shown
light: B1 light
notes: also called He Ab A327_07I
B11: GpH7-B3 variant S239_10E/GpL16-k0 (antibody, human IgG1, kappa)
heavy: not shown
light: B1 light
notes: also called Ho Ab S239_10E
B12: GpH7-B3 variant P331_10E/GpL16-k0 (antibody, human IgG1, kappa)
heavy: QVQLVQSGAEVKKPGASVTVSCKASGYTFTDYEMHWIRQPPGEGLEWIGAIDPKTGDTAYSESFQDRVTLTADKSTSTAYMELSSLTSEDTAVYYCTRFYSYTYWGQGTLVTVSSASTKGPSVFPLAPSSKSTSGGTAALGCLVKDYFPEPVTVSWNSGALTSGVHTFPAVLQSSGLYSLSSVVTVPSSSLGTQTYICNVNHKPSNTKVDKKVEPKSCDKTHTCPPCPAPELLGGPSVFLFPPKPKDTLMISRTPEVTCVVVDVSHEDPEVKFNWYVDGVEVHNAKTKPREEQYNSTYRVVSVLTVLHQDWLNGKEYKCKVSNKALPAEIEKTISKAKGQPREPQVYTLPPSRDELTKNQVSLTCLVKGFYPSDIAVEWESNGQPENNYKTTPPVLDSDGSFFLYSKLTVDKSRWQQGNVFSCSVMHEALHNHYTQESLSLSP
light: B1 light
notes: also called Ho Ab P331_10E
B13: GpH7-B3 variant T335_19Q/GpL16-k0 (antibody, human IgG1, kappa)
heavy: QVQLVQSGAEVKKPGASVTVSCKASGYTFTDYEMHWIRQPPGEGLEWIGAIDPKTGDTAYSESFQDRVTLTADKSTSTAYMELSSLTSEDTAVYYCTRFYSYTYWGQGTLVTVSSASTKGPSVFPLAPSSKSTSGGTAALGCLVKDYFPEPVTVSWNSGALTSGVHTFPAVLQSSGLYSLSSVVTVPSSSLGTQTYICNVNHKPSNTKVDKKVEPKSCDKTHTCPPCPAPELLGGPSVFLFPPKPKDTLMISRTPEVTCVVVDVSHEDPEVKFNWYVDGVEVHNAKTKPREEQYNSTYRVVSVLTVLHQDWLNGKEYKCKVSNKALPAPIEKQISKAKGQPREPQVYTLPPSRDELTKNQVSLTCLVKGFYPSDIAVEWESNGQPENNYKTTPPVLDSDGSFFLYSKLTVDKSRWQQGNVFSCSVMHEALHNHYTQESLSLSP
light: B1 light
notes: also called Ho Ab T335_19Q
B14: GpH7-B3 variant T335_18N/GpL16-k0 (antibody, human IgG1, kappa)
heavy: not shown
light: B1 light
notes: also called Ho Ab T335_18N
B15: GpH7-B3 variant S337_07I/GpL16-k0 (antibody, human IgG1, kappa)
heavy: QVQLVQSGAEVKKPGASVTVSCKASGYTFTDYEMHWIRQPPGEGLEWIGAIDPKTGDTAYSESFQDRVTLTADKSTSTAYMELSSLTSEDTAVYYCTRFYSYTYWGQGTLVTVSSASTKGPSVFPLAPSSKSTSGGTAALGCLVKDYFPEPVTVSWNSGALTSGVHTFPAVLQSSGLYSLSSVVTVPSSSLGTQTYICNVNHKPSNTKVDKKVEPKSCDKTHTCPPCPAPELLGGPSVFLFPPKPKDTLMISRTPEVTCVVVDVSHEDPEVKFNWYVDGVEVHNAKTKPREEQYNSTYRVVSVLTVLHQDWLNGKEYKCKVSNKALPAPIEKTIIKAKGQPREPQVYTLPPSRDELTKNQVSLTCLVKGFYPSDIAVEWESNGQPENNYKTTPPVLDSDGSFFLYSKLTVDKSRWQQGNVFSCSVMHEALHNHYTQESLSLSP
light: B1 light
notes: also called Ho Ab S337_07I
B16: GpH7-A5/GpH7-B3 variant G237_18N/GpL16-k0 (antibody, human IgG1, kappa)
heavy 1: not shown
heavy 2: not shown
light: B1 light
notes: also called He Ab G237_18N
B17: GpH7-B3 variant P238_16H/GpL16-k0 (antibody, human IgG1, kappa)
heavy: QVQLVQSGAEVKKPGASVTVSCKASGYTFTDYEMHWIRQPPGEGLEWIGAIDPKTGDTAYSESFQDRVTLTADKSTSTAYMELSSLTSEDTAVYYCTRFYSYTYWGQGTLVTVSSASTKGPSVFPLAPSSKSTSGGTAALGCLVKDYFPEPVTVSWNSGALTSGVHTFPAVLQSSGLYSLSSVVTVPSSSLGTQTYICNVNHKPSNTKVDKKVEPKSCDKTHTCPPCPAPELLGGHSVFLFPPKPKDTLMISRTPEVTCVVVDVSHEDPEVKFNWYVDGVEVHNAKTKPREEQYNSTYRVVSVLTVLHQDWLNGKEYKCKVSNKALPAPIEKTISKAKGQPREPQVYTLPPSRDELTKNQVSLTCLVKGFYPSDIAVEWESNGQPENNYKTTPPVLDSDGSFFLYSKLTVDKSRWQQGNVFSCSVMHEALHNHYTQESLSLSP
light: B1 light
notes: also called Ho Ab P238_16H
B18: GpH7-B3 variant T335_07I/GpL16-k0 (antibody, human IgG1, kappa)
heavy: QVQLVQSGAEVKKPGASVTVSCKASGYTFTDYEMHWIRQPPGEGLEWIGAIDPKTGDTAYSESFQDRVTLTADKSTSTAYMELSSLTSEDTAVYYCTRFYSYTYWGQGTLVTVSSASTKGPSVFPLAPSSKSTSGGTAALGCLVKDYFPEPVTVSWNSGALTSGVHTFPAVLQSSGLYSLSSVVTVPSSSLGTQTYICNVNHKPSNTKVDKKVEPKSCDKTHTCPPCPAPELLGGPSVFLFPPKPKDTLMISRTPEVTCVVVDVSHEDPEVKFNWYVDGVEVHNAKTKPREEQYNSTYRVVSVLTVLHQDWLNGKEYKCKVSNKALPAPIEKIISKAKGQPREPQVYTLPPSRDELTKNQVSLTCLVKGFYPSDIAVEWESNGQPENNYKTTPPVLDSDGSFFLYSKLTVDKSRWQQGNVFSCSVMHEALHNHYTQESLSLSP
light: B1 light
notes: also called Ho Ab T335_07I
B19: GpH7-B3 variant S337_20W/GpL16-k0 (antibody, human IgG1, kappa)
heavy: not shown
light: B1 light
notes: also called Ho Ab S337_20W
B20: GpH7-B3 variant T335_13S/GpL16-k0 (antibody, human IgG1, kappa)
heavy: not shown
light: B1 light
notes: also called Ho Ab T335_13S
B21: GpH7-A5/GpH7-B3 variant G237_15Y/GpL16-k0 (antibody, human IgG1, kappa)
heavy 1: not shown
heavy 2: not shown
light: B1 light
notes: also called He Ab G237_15Y
B22: GpH7-B3 variant P331_03V/GpL16-k0 (antibody, human IgG1, kappa)
heavy: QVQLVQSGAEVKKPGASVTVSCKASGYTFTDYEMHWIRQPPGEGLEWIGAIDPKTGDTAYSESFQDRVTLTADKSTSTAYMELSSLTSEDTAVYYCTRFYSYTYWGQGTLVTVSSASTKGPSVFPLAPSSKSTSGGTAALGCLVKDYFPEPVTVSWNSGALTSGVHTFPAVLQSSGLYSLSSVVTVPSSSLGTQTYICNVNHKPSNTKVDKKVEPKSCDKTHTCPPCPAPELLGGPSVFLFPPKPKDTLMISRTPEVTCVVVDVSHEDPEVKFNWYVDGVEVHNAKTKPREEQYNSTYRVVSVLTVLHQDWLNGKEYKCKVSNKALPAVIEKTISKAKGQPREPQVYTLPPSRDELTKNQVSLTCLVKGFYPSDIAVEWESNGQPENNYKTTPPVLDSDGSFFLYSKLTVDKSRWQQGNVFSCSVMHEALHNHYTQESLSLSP
light: B1 light
notes: also called Ho Ab P331_03V
B23: GpH7-B3 variant S337_15Y/GpL16-k0 (antibody, human IgG1, kappa)
heavy: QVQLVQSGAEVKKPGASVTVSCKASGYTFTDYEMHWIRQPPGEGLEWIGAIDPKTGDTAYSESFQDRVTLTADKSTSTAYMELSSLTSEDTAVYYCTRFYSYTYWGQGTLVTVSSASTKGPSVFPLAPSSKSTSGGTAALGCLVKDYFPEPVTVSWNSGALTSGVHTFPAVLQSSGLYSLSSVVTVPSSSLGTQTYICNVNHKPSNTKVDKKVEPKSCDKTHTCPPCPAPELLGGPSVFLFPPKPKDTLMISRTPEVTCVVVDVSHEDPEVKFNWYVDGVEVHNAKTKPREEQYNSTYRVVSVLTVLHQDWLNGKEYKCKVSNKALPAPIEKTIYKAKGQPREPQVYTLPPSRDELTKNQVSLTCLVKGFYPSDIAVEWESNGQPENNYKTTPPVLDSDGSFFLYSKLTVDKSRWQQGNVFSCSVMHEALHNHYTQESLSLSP
light: B1 light
notes: also called Ho Ab S337_15Y
B24: GpH7-B3 variant P238_10E/GpL16-k0 (antibody, human IgG1, kappa)
heavy: not shown
light: B1 light
notes: also called Ho Ab P238_10E
B25: GpH7-B3 variant S267_19Q/GpL16-k0 (antibody, human IgG1, kappa)
heavy: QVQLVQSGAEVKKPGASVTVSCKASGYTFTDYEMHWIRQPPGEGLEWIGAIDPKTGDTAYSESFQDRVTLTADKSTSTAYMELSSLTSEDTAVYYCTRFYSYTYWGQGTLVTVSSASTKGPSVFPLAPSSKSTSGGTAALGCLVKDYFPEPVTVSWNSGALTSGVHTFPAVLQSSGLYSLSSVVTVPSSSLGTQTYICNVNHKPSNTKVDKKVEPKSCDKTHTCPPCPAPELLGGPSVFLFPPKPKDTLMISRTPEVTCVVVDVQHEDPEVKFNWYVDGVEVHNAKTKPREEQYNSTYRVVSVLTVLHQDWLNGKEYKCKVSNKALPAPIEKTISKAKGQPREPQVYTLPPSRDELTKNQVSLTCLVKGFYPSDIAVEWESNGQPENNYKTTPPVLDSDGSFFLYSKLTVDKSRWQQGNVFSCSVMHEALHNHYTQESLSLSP
light: B1 light
notes: also called Ho Ab S267_19Q
B26: GpH7-A5/GpH7-B3 variant A330_05P/GpL16-k0 (antibody, human IgG1, kappa)
heavy 1: not shown
heavy 2: not shown
light: B1 light
notes: also called He Ab A330_05P
B27: GpH7-A5/GpH7-B3 variant G237_19Q/GpL16-k0 (antibody, human IgG1, kappa)
heavy 1: not shown
heavy 2: not shown
light: B1 light
notes: also called He Ab G237_19Q
B28: GpH7-A5/GpH7-B3 variant G237_08L/GpL16-k0 (antibody, human IgG1, kappa)
heavy 1: not shown
heavy 2: not shown
light: B1 light
notes: also called He Ab G237_08L

Target: T1, FcγRIIb extracellular domain with C-terminal His tag (human, UniProt P31994 43-217)
T1 construct: extracellular domain; also called FcgRIIb; 2b
T1 sequence (looked up): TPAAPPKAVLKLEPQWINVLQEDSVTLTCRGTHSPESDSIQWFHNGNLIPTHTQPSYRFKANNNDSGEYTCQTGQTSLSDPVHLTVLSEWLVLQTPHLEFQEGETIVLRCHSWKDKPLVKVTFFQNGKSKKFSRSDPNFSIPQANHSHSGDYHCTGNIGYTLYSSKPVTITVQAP
Test: SPR (Biacore), relative binding
Experimental: Analysis of interaction between objective antibody and the FcγR was carried out using Biacore T100 (GE Healthcare). HBS-EP+ (GE Healthcare) was used as the running buffer, and the measurement temperature was set to 25° C. Chips produced by immobilizing the antigen peptide by the amine coupling method to a Series S Sencor Chip CM5 (GE Healthcare), or alternatively, chips produced by allowing preliminarily biotinylated antigen peptides to interact with and immobilize onto a Series S Sensor Chip SA (certified) (GE Healthcare) were used. Antibodies of interest were captured onto an antigen peptide-immobilized chip, and allowed to interact to each FcγR diluted with running buffer. To regenerate and repeatedly use the chip, the antibodies captured on the chip were washed off by reacting 10 mM glycine-HCl, pH 1.5.

Binder	Ho/Con_2b	He/Con_2b
B1	209 % of HoCon Ab GpH7-B3/GpL16-k0	–
B2	–	124 % of HeCon Ab GpH7-A5/GpH7-B3/GpL16-k0
B3	94.4 % of HoCon Ab GpH7-B3/GpL16-k0	–
B4	187 % of HoCon Ab GpH7-B3/GpL16-k0	–
B5	108 % of HoCon Ab GpH7-B3/GpL16-k0	–
B6	84.3 % of HoCon Ab GpH7-B3/GpL16-k0	–
B7	–	111 % of HeCon Ab GpH7-A5/GpH7-B3/GpL16-k0
B8	101 % of HoCon Ab GpH7-B3/GpL16-k0	–
B9	–	130 % of HeCon Ab GpH7-A5/GpH7-B3/GpL16-k0
B10	–	127 % of HeCon Ab GpH7-A5/GpH7-B3/GpL16-k0
B11	175 % of HoCon Ab GpH7-B3/GpL16-k0	–
B12	92.3 % of HoCon Ab GpH7-B3/GpL16-k0	–
B13	97.3 % of HoCon Ab GpH7-B3/GpL16-k0	–
B14	96.1 % of HoCon Ab GpH7-B3/GpL16-k0	–
B15	96.6 % of HoCon Ab GpH7-B3/GpL16-k0	–
B16	–	180 % of HeCon Ab GpH7-A5/GpH7-B3/GpL16-k0
B17	18.8 % of HoCon Ab GpH7-B3/GpL16-k0	–
B18	104 % of HoCon Ab GpH7-B3/GpL16-k0	–
B19	99.6 % of HoCon Ab GpH7-B3/GpL16-k0	–
B20	95.2 % of HoCon Ab GpH7-B3/GpL16-k0	–
B21	–	152 % of HeCon Ab GpH7-A5/GpH7-B3/GpL16-k0
B22	86.6 % of HoCon Ab GpH7-B3/GpL16-k0	–
B23	93.4 % of HoCon Ab GpH7-B3/GpL16-k0	–
B24	97.9 % of HoCon Ab GpH7-B3/GpL16-k0	–
B25	185 % of HoCon Ab GpH7-B3/GpL16-k0	–
B26	–	137 % of HeCon Ab GpH7-A5/GpH7-B3/GpL16-k0
B27	–	108 % of HeCon Ab GpH7-A5/GpH7-B3/GpL16-k0
B28	–	148 % of HeCon Ab GpH7-A5/GpH7-B3/GpL16-k0

Source: patent US20150344570A1 (published 2015)
